This assay has as its target Claudin 18 splice variant 2 (CLDN18.2), human (human). The assay is described as follows: cell-based or functional assay.

B1: IMAB362 (antibody, V domains shown)
VH: QVQLQQPGAELVRPGASVKLSCKASGYTFTSYWINWVKQRPGQGLEWIGNIYPSDSYTNYNQKFKDKATLTVDKSSSTAYMQLSSPTSEDSAVYYCTRSWRGNSFDYWGQGTTLTVSS
VL: DIVMTQSPSSLTVTAGEKVTMSCKSSQSLLNSGNQKNYLTWYQQKPGQPPKLLIYWASTRESGVPDRFTGSGSGTDFTLTISSVQAEDLAVYYCQNDYSYPFTFGSGTKLEIKR
modifications: In the in vivo imaging of Example 14 the antibody carried a Dyelight 680 label, site not given; unlabelled in the flow cytometry.
Consider B1, for which the “IMAB362-mediated ADCC on NUGC-4 cells, EC50 on chemotherapy-pretreated versus untreated target cells” value is ~0.33 fraction of the EC50 on untreated cells.
